For data set [1], the target named is T1, MilA (Streptomyces rimofaciens, UniProt B4Y380, A176S).
T1 construct: full-length, C-terminal 6xHis tag (LEHHHHHH) kept, pET28a, expressed in E. coli BL21(DE3); homodimer, active site from both subunits
Briefly: HPLC/LC-MS of CMP and dCMP competition reaction. The format is biochemical. Particulars: 1 mM CMP and dCMP together, 2 mM tetrahydrofolate, 15 mM paraformaldehyde, pH 7.5, 37 °C.

In data set [2] the target is T2, MilA (Streptomyces rimofaciens, UniProt B4Y380, K133R/A176S).
T2 construct: full-length, C-terminal 6xHis tag (LEHHHHHH) kept, pET28a, expressed in E. coli BL21(DE3); homodimer, active site from both subunits
T2 sequence (B4Y380 entry or part of it K133R/A176S): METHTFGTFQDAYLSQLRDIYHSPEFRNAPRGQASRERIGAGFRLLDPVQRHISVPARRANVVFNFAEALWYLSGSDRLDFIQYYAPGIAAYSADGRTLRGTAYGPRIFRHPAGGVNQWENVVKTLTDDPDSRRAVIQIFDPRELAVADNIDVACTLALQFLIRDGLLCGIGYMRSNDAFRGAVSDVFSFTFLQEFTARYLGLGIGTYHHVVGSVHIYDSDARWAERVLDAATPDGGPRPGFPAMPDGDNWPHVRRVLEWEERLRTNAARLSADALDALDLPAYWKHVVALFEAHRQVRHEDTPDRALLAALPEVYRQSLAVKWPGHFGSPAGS
Nature of the data set: HPLC/LC-MS of CMP and dCMP competition reaction. In kind it is biochemical. The conditions noted are these: 1 mM CMP and dCMP together, 2 mM tetrahydrofolate, 15 mM paraformaldehyde, pH 7.5, 37 °C.

The target in data set [3] is T3, MilA (Streptomyces rimofaciens, UniProt B4Y380).
T3 construct: full-length, C-terminal 6xHis tag (LEHHHHHH) kept, pET28a, expressed in E. coli BL21(DE3); homodimer, active site from both subunits
T3 sequence (B4Y380 1-334): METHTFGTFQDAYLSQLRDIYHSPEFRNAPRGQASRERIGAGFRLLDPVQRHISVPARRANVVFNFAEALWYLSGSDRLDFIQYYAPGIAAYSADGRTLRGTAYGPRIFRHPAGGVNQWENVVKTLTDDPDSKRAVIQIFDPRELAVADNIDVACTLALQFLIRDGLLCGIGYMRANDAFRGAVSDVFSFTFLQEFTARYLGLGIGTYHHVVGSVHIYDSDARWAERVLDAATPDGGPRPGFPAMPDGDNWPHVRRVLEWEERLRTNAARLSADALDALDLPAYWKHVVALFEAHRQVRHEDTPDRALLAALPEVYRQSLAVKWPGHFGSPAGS
Briefly: X-ray crystal structure, […] Å. The format is binding. Particulars: crystals grown with hmCMP, pH 6.5, 14 °C; active site.

Substrate in data set [4]: Nc1ccn([C@H]2C[C@H](O)[C@@H](COP(=O)(O)O)O2)c(=O)n1
Nature of the data set: HPLC of hmdCMP formation, Michaelis-Menten fit. In kind it is biochemical, Streptomyces rimofaciens. The conditions noted are these: CH2THF co-substrate saturating (from 2 mM tetrahydrofolate), 50 mM Tris-HCl pH 7.5, 37 °C. The source says: HPLC of […] formation, Michaelis-Menten fit on MilA

Data set [5] concerns the molecule itself. Nature of the data set: crystal structure; hanging-drop vapor diffusion at 14 °C; apo MilA (PEG 3350, lithium sulfate, Tris-HCl pH 8.5) and complexes with CMP, dCMP or hmCMP (sodium cacodylate pH 6.5, sodium acetate); space group P3(2)21, two molecules in the asymmetric unit related by a non-crystallographic twofold rotation.
Substrate in data set [6]: Nc1ccn([C@@H]2O[C@H](COP(=O)(O)O)[C@@H](O)[C@H]2O)c(=O)n1
Briefly: HPLC of hmCMP formation, Michaelis-Menten fit. The format is biochemical, Streptomyces rimofaciens. Particulars: CH2THF co-substrate saturating (from 2 mM tetrahydrofolate), 50 mM Tris-HCl pH 7.5, 37 °C. The source says: HPLC of hmCMP formation, Michaelis-Menten fit on MilA

Setting [7] is: crystal structure of complex at 2.10 Å.
The mark [8] stands for this setting: crystal structure of complex at 1.65 Å.

T1 sequence (B4Y380 entry or part of it A176S): as the sequence (B4Y380 entry or part of it K133R/A176S) above, with R133K counted along it

As to `Nc1ccn([C@H]2C[C@H](O)[C@@H](COP(=O)(O)O)O2)c(=O)n1` [dCMP], the “HPLC/LC-MS of CMP and dCMP competition reaction” value is “significantly enhanced its catalytic efficiency toward dCMP” at MilA [1] and “double mutant MilA A176S/K133R, but its efficiency to dCMP is slightly affected” on MilA [2].

Take `Nc1nc(=O)n([C@@H]2O[C@H](COP(=O)(O)O)[C@@H](O)[C@H]2O)cc1CO` [hmCMP]: at MilA [3], the “X-ray crystal structure, 1.80 Å” value was “MilA‒hmCMP complexes have been deposited in the Protein Data Bank”.

In the case of `Nc1ccn([C@@H]2O[C@H](COP(=O)(O)O)[C@@H](O)[C@H]2O)c(=O)n1` [CMP], the “HPLC/LC-MS of CMP and dCMP competition reaction” value at MilA [1] is “MilA-A176S could still catalyze the hydroxymethylation reaction of CMP”.

B1: MilA, CMP hydroxymethylase from Streptomyces rimofaciens ZJU5119 (wild type, C-terminally His-tagged) (enzyme, UniProt B4Y380 1-334, looked up)
chain: METHTFGTFQDAYLSQLRDIYHSPEFRNAPRGQASRERIGAGFRLLDPVQRHISVPARRANVVFNFAEALWYLSGSDRLDFIQYYAPGIAAYSADGRTLRGTAYGPRIFRHPAGGVNQWENVVKTLTDDPDSKRAVIQIFDPRELAVADNIDVACTLALQFLIRDGLLCGIGYMRANDAFRGAVSDVFSFTFLQEFTARYLGLGIGTYHHVVGSVHIYDSDARWAERVLDAATPDGGPRPGFPAMPDGDNWPHVRRVLEWEERLRTNAARLSADALDALDLPAYWKHVVALFEAHRQVRHEDTPDRALLAALPEVYRQSLAVKWPGHFGSPAGS
notes: MilA, CMP hydroxymethylase of the mildiomycin biosynthetic gene cluster, Streptomyces rimofaciens ZJU5119; full-length, cloned into pET28a; They are disordered in the crystal; also called WT MilA; MilA-WT; source: E. coli BL21(DE3), purified (Ni-NTA, Superdex 200 gel filtration); not shown: His6, C-terminal, kept
For the molecule B1, the Km is listed as 0.245 (0.0589) mM in data set [4] and 0.0719 (0.0076) mM in data set [6]. The kcat (as a rule, the maximal rate divided by the concentration of active sites) in data set [4] (setting [7]) worked out at 0.032 s⁻¹; in data set [6] (setting [8]) it was 0.047 s⁻¹. Besides, the values for the catalytic efficiency (kcat/Km) in data set [4] (setting [7]) and in data set [6] (setting [8]) were 131 M⁻¹ s⁻¹ and 653 M⁻¹ s⁻¹, respectively. Besides, the stoichiometry N (in general, a count of units in the complex or per binding partner) in data set [5] was 2.

Values taken from article PMC5175136, “Structural basis of the substrate preference towards CMP for a thymidylate synthase MilA involved in mildiomycin biosynthesis” (Scientific Reports, 2016).
